The text below walks through data of PMC8578170, “Electron carriers involved in autotrophic and heterotrophic acetogenesis in the thermophilic bacterium Thermoanaerobacter kivui” (Extremophiles, 2021).

Data set [1] addresses T1, His-MetFV (Thermoanaerobacter kivui, UniProt A0A097ATJ3).
T1 construct: gene metF; with Methylenetetrahydrofolate reductase subunit MetV
T1 sequence (A0A097ATJ3 1-291): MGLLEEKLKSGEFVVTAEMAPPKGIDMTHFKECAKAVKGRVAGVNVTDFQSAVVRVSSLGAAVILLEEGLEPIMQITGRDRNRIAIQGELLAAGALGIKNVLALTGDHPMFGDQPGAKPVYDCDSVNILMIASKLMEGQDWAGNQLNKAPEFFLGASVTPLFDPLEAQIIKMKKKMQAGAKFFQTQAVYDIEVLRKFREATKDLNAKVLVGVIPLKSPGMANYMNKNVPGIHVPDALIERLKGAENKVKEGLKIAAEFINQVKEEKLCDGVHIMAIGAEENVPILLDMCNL
T1 sequence (A0A097ATJ4 1-216 partner): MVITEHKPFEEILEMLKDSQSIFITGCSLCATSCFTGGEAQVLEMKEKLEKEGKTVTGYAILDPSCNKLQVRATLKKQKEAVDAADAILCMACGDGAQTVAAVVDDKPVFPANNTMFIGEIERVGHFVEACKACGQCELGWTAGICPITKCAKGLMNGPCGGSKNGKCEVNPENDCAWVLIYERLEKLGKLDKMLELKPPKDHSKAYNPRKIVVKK
Put plainly: spectrophotometric reduced methyl viologen:methylene-THF oxidoreductase assay, […] nm. The data set is classed as biochemical. To be noted: methylene-THF formed from 0.5 mM THF and 1.5 mM formaldehyde; 10 mM methyl viologen, dithionite; 50 mM KPi, 20 mM ascorbate, pH 7, 66 °C.

Data set [2] deals with T1, His-MetFV. Kind of data set: spectrophotometric methyl-THF:benzyl viologen oxidoreductase assay, […] nm. The data set is classed as biochemical. The following applies: 1 mM methyl-THF, 10 mM benzyl viologen; 50 mM KPi, 20 mM ascorbate, pH 7, 66 °C.
Data set [3] concerns the target His-HydABC, electron-bifurcating hydrogenase complex of T. kivui (Thermoanaerobacter kivui). Kind of data set: SEC; analytical size exclusion chromatography on a calibrated Superdex 200 column with size standards; buffer B (50 mM Tris/HCl, 150 mM NaCl, 20 mM MgSO4, 2 mM DTE, 20% glycerol, pH 7.5). (Size exclusion chromatography separates by hydrodynamic size, large species first.)

Data set [4] addresses T1, His-MetFV. Put plainly: thin-layer chromatography of flavin released from purified complex. The following applies: 10 µM FMN in purification buffers unless otherwise specified. The data set is classed as binding.
In data set [5] the target is His-HydABC, electron-bifurcating hydrogenase complex of T. kivui (Thermoanaerobacter kivui).
Data set [6] concerns the molecule itself. Kind of data set: SEC; analytical size exclusion chromatography on a calibrated Superdex 200 column with size standards; buffer B (50 mM Tris/HCl, 150 mM NaCl, 20 mM MgSO4, 2 mM DTE, 20% glycerol, pH 7.5).
Substrate in data set [7]: Cc1cc2nc3c(=O)[nH]c(=O)nc-3n(C[C@H](O)[C@H](O)[C@H](O)COP(=O)(O)O)c2cc1C
Put plainly: spectrophotometric H2:Fd/NADP+ oxidoreductase assay. The data set is classed as biochemical, Thermoanaerobacter kivui. To be noted: H2, ferredoxin and NADP+ as co-substrates, pH 8, 66 °C, FMN stimulation of activity, error exceeds the value, varied: cofactor.

Substrate in the data set “purified protein”: NC(=O)c1ccc[n+]([C@@H]2O[C@H](COP(=O)(O)OP(=O)(O)OC[C@H]3O[C@@H](n4cnc5c(N)ncnc54)[C@H](OP(=O)(O)O)[C@@H]3O)[C@@H](O)[C@H]2O)c1
Kind of data set: purified protein. To be noted: H2 and C. pasteurianum ferredoxin as co-substrates, 5 µM FMN, 50 mM EPPS, 10 mM NaCl, pH 8, 66 °C.

In the case of `Nc1nc2c(c(=O)[nH]1)N1CN(c3ccc(C(=O)N[C@@H](CCC(=O)O)C(=O)O)cc3)C[C@H]1CN2` [methylene-THF], the “spectrophotometric reduced methyl viologen:methylene-THF oxidoreductase assay, 6” value on His-MetFV [1] is given as “The purified MetFV complex catalyzed the reduction of methylene-THF with reduced MV”.

Turning to `CN1c2c(nc(N)[nH]c2=O)NC[C@@H]1CNc1ccc(C(=O)N[C@@H](CCC(=O)O)C(=O)O)cc1` [methyl-THF], on His-MetFV [2], the “spectrophotometric methyl-THF:benzyl viologen oxidoreductase assay, 600 nm” value is “oxidation of methyl-THF was not coupled to NAD^+, NADP^+ or Fd reduction”.

As to “His-HydABC, electron-bifurcating hydrogenase complex of T. kivui (from UniProt A0A097ATG4 1-630; A0A097ATI0 1-170)”, the stoichiometry N (as a rule, the number of molecules, sites or subunits per partner or assembly) in data set [3] came to 2.

Consider `Cc1cc2nc3c(=O)[nH]c(=O)nc-3n(C[C@H](O)[C@H](O)[C@H](O)COP(=O)(O)O)c2cc1C` [FMN], for which the “thin-layer chromatography of flavin released from purified complex” value on His-MetFV [4] is reported as “subsequent separation of the flavin-containing supernatant by thin-layer chromatography (TLC), FMN could be detected”.

B1: ferredoxin isolated from Clostridium pasteurianum (natural protein)
chain: MAYKIADSCVSCGACASECPVNAISQGDSIFVIDADTCIDCGNCANVCPVGAPVQE
Turning to B1, the Km for Fd in the NADP+-dependent H2:Fd oxidoreductase assay (Fd 0–200 µM, 66 °C) in data set [5] is 13.6 µM.

B2: His-MetFV, methylene-THF reductase complex of T. kivui (complex, Thermoanaerobacter kivui)
chain 1: T1 sequence (A0A097ATJ3 1-291)
chain 2: T1 sequence (A0A097ATJ4 1-216 partner)
notes: One MetFV heterodimer; By analytical SEC the purified complex (174 kDa) is consistent with three MetFV heterodimers; It contains iron-sulfur clusters and FMN; also called MTHFR; MetFV heterodimer; source: T. kivui (DSM 2030), plasmid pMU131_His-metFV, produced homologously, purified (Ni2+-NTA, Superdex 200)
As for B2, the “stoichiometry N” value in data set [6] is 3.

B3: His-HydABC (Thermoanaerobacter kivui) (protein)
chain: MVKLKSIQELENLREKIKEAKKKEKIVIRICGGTGCRASGSLAVRDELVKVLKREGFANVDVNLSSDCLENTSEVHVKMTGCQGFCAQGPLMTIEPLGVFYVGVKPEDVEEIVEKSIKKNEIIERLLYHDPATGKTYVKRDENPFYAKQTRLVLKHCGTVDPASVYDYIAEGGYSAIAKALTMDRKQIIDEVIKSGLRGRGGAGFPTGEKWLGAYKNQSPKKYIICNGDEGDPGAFMDRSVMEGDPHKVIEGMMIGAYAIGSDEGYIYVRAEYPLAVQMLRKAIEECEKLGLLGDNILGTGFSFRLHVREGAGAFVCGESTALTYSIEGKRGMPRVRPPRTNECGLWEMPTVLNNVETFACIPEIILNGGEWFASIGTPTSTGTKIFALSGKVNRTGLVEVPMGLKLRELIFDIGGGIANNKKFKAVQLGGPSGGCVPESQLDLPIDFDSLSKAGAIMGSGGVVVVDEDTCMVDFAKFFTNFIVEESCGKCIPCREGNKKMLEILERITEGKGKEGDIELLEELGDVIISASLCGLGKTAPNPVLSTIKHFRDEYEAHIRDKKCPAGACQALAAYKIDPGKCIGCGKCVKVCPVGAISGEKKKPHVIDQSKCIKCGACAENCPKGAIYKG
notes: HydABC complex, 10xHis tag at 3' end of hydA, plasmid pMU131, produced homologously in T. kivui; Ni-NTA and Superdex 200; 348 kDa, dimer of HydABC (HydA 64, HydB 68, HydC 18 kDa); with Electron-bifurcating [FeFe] hydrogenase subunit HydA; Electron-bifurcating hydrogenase subunit HydC
With B3, the Michaelis-Menten constant (Km) (commonly the concentration of substrate that gives half-maximal velocity) in data set [7] came out at 0.3 ± 0.8 µM; in the data set “purified protein”, 48.8 ± 10.6 µM.
